Source: US8846873B2, “Antibodies directed to GPNMB and uses thereof” (Celldex Therapeutics, Inc., priority 2004, dated 2014)

How the values were obtained:
[1] = system: CG56972-expressing cancer cell lines; assay: Growth of CG56972-expressing cancer cell lines with naked CR011 or CR011 plus saporin-conjugated secondary antibody; assay type: cell-based; details: for effect on CG56972 expressing cells / growth, naked antibody: used directly
Text: Fully human monoclonal antibodies (mAb)-IgG2 to CG56972/GPNMB, an antigen predominantly found on the surface of melanoma and brain tumor cells, were generated. The naked CR0111gG2 mAb (mAb 1.15) had no effect on CG56972 expressing cells either in vitro or in vivo. Thus we examined whether isotype switching from an IgG2 to an IgG1 might enable the mAb to kill human melanoma cells through ADCC effector functions.

melanoma cell lines = assay: Clonogenic assay with 1.15.1-AE; assay type: cell-based, human; details: various concentrations
Method: Melanoma cell lines were plated onto flat bottom 96-well tissue culture plates (Becton Dickinson, Franklin Lakes, N.J., USA). On day 2 or when cells reach ˜25% confluency, various concentrations of unconjugated and Auristatin E-conjugated 1.15.1 were added to cells. MAb 2.6.2-AE was also used as a conjugated isotype control in this study. On day 5, the cells were trypsinized, transferred to 6-well tissue culture plates and incubated at 37° C. Plates were examined daily. On days 8-10, all plates were Giemsa stained and colonies on the plates were counted.

TK10 = assay: Anti GPNMB antibody mediated indirect cell killing (saporin secondary antibody-toxin conjugate, colony count); assay type: cell-based; details: primary antibody 50 ng/mL plus goat anti-human IgG-saporin 100 ng/well
Method: UACC-62, a GPNMB antigen expressing cell line, and TK10, a non-expressing cell line were plated onto flat bottom 96-well tissue culture plates (Becton Dickinson, Franklin Lakes, N.J., USA) at a density of 3000 cells per well. Once the cells reached ˜25% confluency, 100 ng/well of secondary antibody-toxin conjugate (goat anti-human IgG-saporin; Advanced Targeting Systems, San Diego, USA, HUM-ZAP; cat. # IT-22) was added. Anti-GPNMB MAbs 2.10.2, 2.22.1, 1.15.1 or isotype control mAb (pK16.3) were added to each well at a final concentration of 10 or 50 ng/mL. An anti-EGFR monoclonal antibody (MS-269-PABX, NeoMarkers, Fremont, Calif., USA) was used as a positive primary antibody control. Chemotherapy reagent 5-FU at 600 uM was used as a positive reagent control. On day 5, the cells were trypsinized, transferred to 6-well tissue culture plates and incubated at 37° C. Plates were examined daily and between 8-10 days, all plates were Giemsa stained and colonies were counted.

GPNMB = target: T1, GPNMB (Homo sapiens, UniProt Q14956); assay: ELISA of hybridoma supernatants for binding to GPNMB
T1 construct: made in house; host or cells: HEK 293
T1 sequence (Q14956 23-492): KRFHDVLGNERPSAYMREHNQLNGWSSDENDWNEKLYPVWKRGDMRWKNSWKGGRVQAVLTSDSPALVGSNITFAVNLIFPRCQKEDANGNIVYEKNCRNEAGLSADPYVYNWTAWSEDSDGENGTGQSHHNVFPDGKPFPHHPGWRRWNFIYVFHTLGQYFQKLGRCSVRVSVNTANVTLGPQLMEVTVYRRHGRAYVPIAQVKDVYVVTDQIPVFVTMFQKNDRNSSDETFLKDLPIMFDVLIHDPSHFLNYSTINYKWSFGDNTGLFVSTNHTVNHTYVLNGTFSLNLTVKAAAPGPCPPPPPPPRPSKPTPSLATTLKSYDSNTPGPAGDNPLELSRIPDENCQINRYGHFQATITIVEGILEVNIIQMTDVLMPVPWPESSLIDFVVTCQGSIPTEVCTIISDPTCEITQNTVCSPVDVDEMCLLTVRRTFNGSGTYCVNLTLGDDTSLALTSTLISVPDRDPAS
Method: After 14 days of culture, hybridoma supernatants were screened for GPNMB specific monoclonal antibodies. In the Primary screen, the ELISA plates (Fisher, Cat. No. 12-565-136) were coated with 50 μL/well of GPNMB (1 μg/mL) in Coating Buffer (0.1 M Carbonate Buffer, pH 9.6, NaHCO3 8.4 g/L), then incubated at 4° C. overnight. After incubation, the plates were washed with Washing Buffer (0.05% Tween 20 in PBS) three times. 200 μL/well Blocking Buffer (0.5% BSA, 0.1% Tween 20, 0.01% Thimerosal in 1×PBS) were added and the plates were incubated at room temperature for 1 h. After incubation, the plates were washed with Washing Buffer three times. Aliquots (50 μL/well) of hybridoma supernatants and positive and negative controls were added, and the plates were incubated at room temperature for 2 h. The positive control used throughout was serum from the relevant GPNMB immunized XenoMouse® mouse and the negative control was serum from the KLH-immunized relevant strain of XenoMouse® mouse. After incubation, the plates were washed three times with Washing Buffer. 100 μL/well of detection antibody goat anti-huIgGfc-HRP (Caltag, Cat. No. H10507, using concentration was 1:2000 dilution) was added and the plates were incubated at room temperature for 1 hour. After incubation, the plates were washed three times with Washing Buffer. 100 μl/well of TMB (BioFX Lab. Cat. No. TMSK-0100-01) was added, and the plates were allowed to develop for about 10 minutes (until negative control wells barely started to show color). 50 μl/well stop solution (TMB Stop Solution (BioFX Lab. Cat. No. STPR-0100-01) was then added and the plates were read on an ELISA plate reader at a wavelength of 450 nm.
Hybridoma supernatants were screened for binding to GPNMB by ELISA as described above in Example 2.

U-118-MG = assay: Flow cytometry (FACS) of CR011 surface staining; assay type: binding, human
Method: (§1) Flow Cytometry: Quantitative analysis of CG56972 expression on the surface of cell lines was determined by flow cytometry (FACS). […] Cells were fixed in 1% paraformaldehyde/PBS and examined on a Becton Dickinson FACSCalibur flow cytometer. Data analysis was performed with Becton Dickinson Cell Quest software version 3.3 and the geometric mean fluorescence intensity ratio (GMR) was determined for each cell type.

XF-498 = assay: Flow cytometry (FACS) of CR011 surface staining; assay type: binding, human
Method: as §1

SNB-78 = assay: Flow cytometry (FACS) of CR011 surface staining; assay type: binding, human
Method: as §1

SF-268 = assay: Flow cytometry (FACS) of CR011 surface staining; assay type: binding, human
Method: as §1

SF-539 = assay: Flow cytometry (FACS) of CR011 surface staining; assay type: binding, human
Method: as §1

[2] = system: lymphoma or leukemia cell lines; assay: Clonogenic assay with 1.15.1-AE (methylcellulose); assay type: cell-based; details: various concentrations
Method: Lymphoma or leukemia cell lines were mixed with methylcellulose base media (R&D Systems, USA) and in various concentrations of unconjugated and Auristatin E-conjugated 1.15.1 antibody before plating onto 6-well tissue culture plates (Becton Dickinson, Franklin Lakes, N.J., USA). […] Plates were incubated at 37° C. and examined daily. On days 14-18, colonies on the plates were counted.

B1: Mab1.15.1 (protein, listed as Homo sapiens)
chain: QVQLQESGPGLVKPSQTLSLTCTVSGGSISSFNYYWSWIRHHPGKGLEWIGYIYYSGSTYSNPSLKSRVTISVDTSKNQFSLTLSSVTAADTAVYYCARGYNWNYFDYWGQGTLVTVSSA
In the case of B1, the “growth of CG56972-expressing cancer cells” value ([1]; combined with saporin-conjugated secondary antibody) is reported as “could specifically inhibit the growth”, the “effect on CG56972 expressing cells / growth, naked antibody” value [1] is reported as “no effect” and the “effect on CG56972 expressing cells / growth, naked antibody” value ([1]; listed as CR011) is reported as “did not inhibit the growth”. For the same molecule, the “effect on growth of all the melanoma cell lines tested” value (melanoma cell lines) was “no effect on growth”, the “cell death in GPNMB negative TK10 cells” value (TK10) was “less than 24%” and the “Avg OD” value (GPNMB; 12.3 ng/mL) was 0.168. For the same molecule, the “Avg OD” value (GPNMB; 37 ng/mL) was 0.381, the “Avg OD” value (GPNMB; 111 ng/mL) was 0.701 and the “Avg OD” value (GPNMB; 333 ng/mL) was 0.902. The “Avg OD” value (GPNMB; 1 μg/mL) was 1.051, the “Avg OD” value (GPNMB; 3 μg/mL) was 1.159 and the “surface staining above isotype control mAb background” value (U-118-MG) was “at least 1.5 fold”. The “surface staining above isotype control mAb background” value (XF-498) was “at least 1.5 fold”, the “surface staining above isotype control mAb background” value (SNB-78) was “at least 1.5 fold” and the “surface staining above control mAb background” value (SF-268) was “around 1.5 fold”. The “surface staining above isotype control mAb background” value (SF-539) was “at least 1.5 fold” and the “effect on growth of all antigen positive hematopoietic cell lines” value [2] was “no effect on growth”.
